Sequences and labels used below:
B1: 5888-116H1+L1 (antibody, V domains shown)
VH: QVQLQQSGAELVRPGASVTLSCKASGYTFTDSEMYWVRLTPVHGLEWIGAIDPETGDTAFNQKFKGKATLTADKSSSTAYMELRSLTSEDSVVYYCTRAFDNDNDDGFAYWGQGTLVTVSA
VL: QIVMTQSPAIMSASPGEKVTMTCSASSSVNYMHWYQQKSGTSPKRWIYDTSKLASGVPARFSGSGSGTSYSLTISSMEAEDAATYYCQQWSSNPLTFGAGTKLELK
notes: murine antibody
B2: 5886-156H+L (antibody, V domains shown)
VH: DVQLQQSGPGLVKPSQSLSLTCTVTGYSITSDYAWNWIRQFPGNKLEWMGYIDYSGSTTYNPSLKSRFSITRDTSKNQFFLQLNSVTTEDTATYYCASTVIDSMDYWGQGTSVTVSS
VL: DIVLTQSPASLAVSLGQRATISCRASKSVSTSGHSYMHWYQQKPGQPPKLLIYLASNLESGVPARFSGSGSGTDFTLNINPMEEEDAATYYCQHSREFPFTFGSGTKLEIK
notes: murine antibody
B3: 5887-41H+L (antibody, V domains shown)
VH: B2 VH with N36D, D53R, S57D, T59Y, F68I, S98T, V100M, I101M, S103T
VL: B2 VL with A12T, H34N, N80H, M82V, F100L, S104A, I110L
notes: murine antibody
B4: 5887-537H3+L1 (antibody, V domains shown)
VH: QVTLKESGPGILQPSQTLSLTCSFSGFSLSTSGMGVGWIRQPSGKGLEWLAHIWWDDVKQYNPALKSRLTISKDTSSSQVFLKSASVDTADTATYYCARIGGDYDYFDFWGQGTTLTVSS
VL: DIVLTQSPASLAVSLGQRATISCRASESVEYSGTSLMQWYQQKPGQPPKLLIYVASNVESGVPARFSGSGSGTDFSLNIHPVEEDDIAMYFCQQSRKVPWTFGGGTKLEIK
notes: murine antibody; also called 5887-537H3H+L1
B5: Control antibody CNTO7160 (antibody, human IgG4 S228P, kappa, V domains shown)
VH: EVQLLESGGGLVQPGGSLRLSCAASGFTFSIYDMIWVRQAPGKGLEWVSSIRGEGGGTYYADSVKGRFTISRDNSKNTLYLQMNSLRAEDTAVYYCARDPWSTEGSFFVLDYWGQGTLVTVSS
VL: EIVLTQSPATLSLSPGERATLSCRASQSVDDDLAWYQQKPGQAPRLLIYDASNRATGIPARFSGSGSGTDFTLTISSLEPEDFAVYYCQQYITAPLTFGQGTKVEIKR

Positions count from the first letter of the chain named.

One assay deals with T1, Human ST2-his (human, UniProt Q01638 19-328).
T1 construct: Expressed in CHO-K1; also called human ST2 fused with a 6-histidine tag at the C-terminus
T1 sequence: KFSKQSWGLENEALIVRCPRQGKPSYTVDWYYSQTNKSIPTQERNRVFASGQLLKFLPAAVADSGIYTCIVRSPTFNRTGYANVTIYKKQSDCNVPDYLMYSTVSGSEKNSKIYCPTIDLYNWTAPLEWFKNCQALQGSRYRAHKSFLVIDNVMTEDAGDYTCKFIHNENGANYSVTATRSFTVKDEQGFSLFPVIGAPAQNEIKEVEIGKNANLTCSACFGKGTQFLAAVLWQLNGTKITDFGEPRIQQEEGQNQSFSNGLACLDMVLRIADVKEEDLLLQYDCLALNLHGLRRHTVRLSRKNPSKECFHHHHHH
In words: ELISA, coated human ST2-his. Here is the method: Human ST2-his was diluted with a coating buffer to 1 μg/mL, added into plates at 50 μL/well, and coated overnight at 4° C. Next day, the coated plates were taken, washed with PBST for 3 times, and then incubated using a blocking buffer at room temperature for 1 hr. Subsequently, the plates were washed with PBST for 3 times again. Starting at 100 ng/mL, each murine antibody was diluted 3-fold to obtain serial dilutions of 8 concentrations in total which were then added into the 96-well plates at 50 μL/well. The plates were incubated at room temperature for 1 hr, washed with PBST for 3 times; and then a goat anti-mouse secondary antibody (1:10000) was added at 50 μL/well into the 96-well plates which subsequently were incubated at room temperature for 1 hr. The 96-well plates were washed with PBST for 3 times, and TMVB was added at 50 μL/well to develop color in dark for 10 min. Afterwards, 2 M sulfuric acid was added to stop reaction; and GD values at 450 nm were read by a micro-plate reader.
Background: An ELISA detects its analyte on a solid surface through an enzyme-linked reagent.
By EC50 is commonly meant the concentration giving half of the maximal effect. A higher EC50 goes with a need for much substance. For B1, the response was half-maximal at 0.0288 µg/mL (EC50) and the “Relative activity (%) compared with CNTO7160” value turned out to be 63.4%.

For the molecule B2, the EC50 came to 0.0161 µg/mL and the “Relative activity (%) compared with CNTO7160” value is 131%.

For B3, the response was half-maximal at 0.0266 µg/mL (EC50) and the “Relative activity (%) compared with CNTO7160” value is 97.9%.

Turning to B4, the EC50 stood at 0.0123 µg/mL and the “Relative activity (%) compared with CNTO7160” value turned out to be 72.4%.

Another assay addresses T2, ST2 on KU812 cells (UniProt Q01638 19-556, limits assumed).
T2 sequence (looked up): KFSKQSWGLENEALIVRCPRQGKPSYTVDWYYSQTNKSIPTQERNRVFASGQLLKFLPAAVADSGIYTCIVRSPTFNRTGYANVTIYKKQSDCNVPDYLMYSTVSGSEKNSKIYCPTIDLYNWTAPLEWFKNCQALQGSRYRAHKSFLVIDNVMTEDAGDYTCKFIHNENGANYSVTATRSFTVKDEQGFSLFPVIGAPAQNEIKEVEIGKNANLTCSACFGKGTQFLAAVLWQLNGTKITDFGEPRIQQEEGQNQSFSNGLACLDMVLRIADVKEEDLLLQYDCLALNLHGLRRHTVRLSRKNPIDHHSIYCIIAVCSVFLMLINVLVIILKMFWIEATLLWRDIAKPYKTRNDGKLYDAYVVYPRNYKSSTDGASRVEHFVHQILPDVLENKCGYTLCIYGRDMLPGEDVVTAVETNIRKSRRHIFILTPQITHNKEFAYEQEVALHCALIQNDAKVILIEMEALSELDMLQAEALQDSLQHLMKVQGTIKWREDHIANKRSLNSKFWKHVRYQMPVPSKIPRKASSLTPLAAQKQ
In words: cell-based or functional assay.
In the case of B1, the “IC50, activation of KU812-NF-κB reporter gene by IL33” value (“IC50, activation” below) worked out at 0.206 µg/mL and the “Relative activity (%) compared with CNTO7160, KU812-NF-κB reporter” value (“Relative activity (%) … KU812-NF-κB reporter” below) worked out at 122%.

Take B2: the “IC50, activation” value was 0.00804 µg/mL and the “Relative activity (%) … KU812-NF-κB reporter” value is 127%.

Take B3: the “IC50, activation” value is 0.00287 µg/mL and the “Relative activity (%) … KU812-NF-κB reporter” value came to 41.9%.

Regarding B4, the “IC50, activation” value worked out at 0.101 µg/mL and the “Relative activity (%) … KU812-NF-κB reporter” value came out at 40.2%.

The next assay concerns the target T2, ST2 on KU812 cells. In words: cell-based or functional assay. This is another data set of the same source.
B1: the “Maximum inhibition rate (%), KU812 IL-5 production” value (“Maximum inhibition rate (%)” for short) stood at 81.4% and the “Relative activity (%), KU812 IL-5 production” value is 238%.

B2: the “Maximum inhibition rate (%)” value turned out to be 84.2% and the “Relative activity (%), KU812 IL-5 production” value is 304%.

In the case of B3, the “Maximum inhibition rate (%)” value was found to be 79.2% and the “Relative activity (%), KU812 IL-5 production” value worked out at 128%.

As for B5, the “Maximum inhibition rate (%)” value is 89%.

Consider B4, for which the “Maximum inhibition rate (%)” value stood at 62.2% and the “Relative activity (%), KU812 IL-5 production” value was found to be 767%.

The next assay addresses T1, Human ST2-his. In words: SPR Biacore X100, antibody on protein A, ST2-his analyte. Here is the method: On the basis of the results of the quantitative screenings of murine antibodies above together, 19 murine antibodies were selected for affinity determination and in vitro pharmacological study. The experiment on the interaction between the anti-human ST2 antibodies and human ST2-his was performed using Biacore X100, and was carried out at 25° C. in HBS-EP (1×) buffer (pH 7.4).
Each anti-human ST2 antibody was diluted to 10 nM and captured on the surface of a protein A chip (for a capture time of 60 s). […] Association was monitored for 4 min and dissociation for 10 min, and the sensor surface was regenerated by injecting a solution of glycine at pH 2.0. Data generated for kinetics and affinity assay were analyzed using BIAevaluation software.
In general terms: In SPR one partner is held on a chip, and binding of the other changes the refractive index at the surface.
A word on the Kd: it is the equilibrium constant for the complex coming apart. In general, koff refers to a measure of how fast the partners let go of each other. Low values mean a long-lived complex, high ones a short-lived complex. One may read the kon as the second-order rate constant of association. Higher therefore signals fast association. Molecule B1 showed a Kd of 0.113 nM, a koff of 0.00111 s⁻¹ and a kon of 9.87e+06 M⁻¹ s⁻¹.

Molecule B2 yielded a Kd of 0.461 nM, a koff of 0.00109 s⁻¹ and an on-rate (kon) of 2.37e+06 M⁻¹ s⁻¹.

For B3, the Kd came to 0.56 nM, the off-rate constant (koff) came to 0.000613 s⁻¹ and the kon was determined as 1.1e+06 M⁻¹ s⁻¹.

Molecule B5 registered a Kd of 0.698 nM, a koff of 0.000539 s⁻¹ and a kon of 827000 M⁻¹ s⁻¹.

In the case of B4, the Kd turned out to be 0.168 nM, the off-rate constant (koff) came to 0.00084 s⁻¹ and the kon came to 5.01e+06 M⁻¹ s⁻¹.

The target of the next assay is Human ST2-fc (human) (UniProt Q01638). In words: competition ELISA, coated ST2-fc, competitor IL33-his.
What is called IC50 is the point on the concentration scale where inhibition reaches its midpoint. B1: the IC50 worked out at 0.9 µg/mL and the Relative activity (%) compared with CNTO7160 is 65.2%.

As to B2, the IC50 amounted to 1.14 µg/mL and the Relative activity (%) compared with CNTO7160 was determined as 76.6%.

B3: the concentration for half-maximal inhibition (IC50) is 1.29 µg/mL and the Relative activity (%) compared with CNTO7160 is 82.7%.

As for B4, the half-inhibitory concentration (IC50) turned out to be 0.99 µg/mL and the Relative activity (%) compared with CNTO7160 was 93.5%.

Another assay deals with T3, Cyno ST2-fc (cyno; human, UniProt A0A2K5UDB8 19-331).
T3 construct: also called cyno ST2 fused with a human IgG1 Fc tag at the C-terminus
T3 sequence: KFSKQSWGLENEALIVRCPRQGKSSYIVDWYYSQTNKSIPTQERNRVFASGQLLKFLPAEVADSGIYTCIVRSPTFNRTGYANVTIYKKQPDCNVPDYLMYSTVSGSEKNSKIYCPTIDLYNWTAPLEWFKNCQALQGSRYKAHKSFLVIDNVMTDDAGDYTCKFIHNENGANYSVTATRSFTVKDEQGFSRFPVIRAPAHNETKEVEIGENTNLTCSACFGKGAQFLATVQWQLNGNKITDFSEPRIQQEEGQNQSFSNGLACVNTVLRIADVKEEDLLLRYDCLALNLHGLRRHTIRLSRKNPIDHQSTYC
In words: SPR Biacore X100, antibody on CM5, cyno ST2-fc analyte. The protocol: The experiment on the interactions between the anti-human ST2 antibodies and cyno ST2-fc was performed using Biacore X100, and was carried out at 25° C. in HBS-EP (1×) buffer (pH 7.4). Each antibody was immobilized on the surface of CM5 chip using an amino coupling kit. Following the antibody immobilization, a solution of cyno ST2-fc (2-fold gradient dilution from a starting concentration of 8 nM, to obtain 6 concentrations in total; the starting concentration might be increased if the signal of some sample was too low) was injected. Association was monitored for 2 min and dissociation for 10 min, and the sensor surface was regenerated by injecting a solution of glycine at pH 1.5.
Take B1: the affinity, expressed as Kd, was 0.0469 nM; the koff came to 0.000382 s⁻¹; the kon worked out at 8.14e+06 M⁻¹ s⁻¹.

Molecule B2 came in with a Kd of 0.206 nM, a koff of 0.000747 s⁻¹ and a kon of 3.62e+06 M⁻¹ s⁻¹.

B3 gave a Kd of 0.0903 nM, a koff of 0.000721 s⁻¹ and a kon of 7.98e+06 M⁻¹ s⁻¹.

In turn, B5 gave a Kd of 0.136 nM, a koff of 0.000221 s⁻¹ and an on-rate (kon) of 1.63e+06 M⁻¹ s⁻¹.

Regarding B4, the Kd came out at 0.0807 nM, the koff amounted to 0.000511 s⁻¹ and the kon was 6.33e+06 M⁻¹ s⁻¹.

For another assay, the target named is T3, Cyno ST2-fc. In words: ELISA, coated cyno ST2-fc. The protocol: Cyno ST2-fc was diluted with a coating buffer to 1 μg/mL, added into 96-well plates at 50 μL/well and coated overnight at 4° C. Next day, the coated plates were taken, washed with PB ST for 3 times, and then incubated using a blocking buffer at room temperature for 1 hr. Subsequently, the plates were washed with PBST for 3 times again. Starting at 1000 ng/mL, each murine antibody was diluted 3-fold to obtain serial dilutions of 8 concentrations in total which were then added into the 96-well plates at 50 μL/well. The plates were incubated at room temperature for 1 hr, washed with PB ST for 3 times; and then a goat anti-mouse secondary antibody (1:10000) was added at 50 μL/well into the 96-well plates which subsequently were incubated at room temperature for 1 hr. The 96-well plates were washed with PB ST for 3 times, and TMB was added at 50 μL/well to develop color in dark for 10 min. Afterwards, 2 M sulfuric acid was added to stop reaction; and GD values at 450 nm were read by a microplate reader. It can be seen that the murine antibodies can bind to cyno ST2, with a binding trendency consistent with the binding to human ST2.
Take B1: the EC50 came out at 0.0384 µg/mL and the “Relative activity (%)” value worked out at 63.7%.

On to B2, for which the EC50 came out at 0.0203 µg/mL and the “Relative activity (%)” value stood at 66.4%.

Consider B3, for which a half-maximal response (EC50) required 0.0615 µg/mL and the “Relative activity (%)” value came out at 21.9%.

Regarding B4, the concentration giving a half-maximal response (EC50) was 0.0171 µg/mL and the “Relative activity (%)” value came to 78.5%.

(Values after US12624112 (MABWELL SHANGHAI BIOSCIENCE, dated 2026).)
